Tests used:
ADDATRX = molecular target: T1, ADDATRX (Homo sapiens, UniProt P46100, F284Y/K251R); format: binding; details: wild type ADDATRX; Kd n.d. in Fig. 4b
T1 sequence (P46100 167-289 K251R/F284Y): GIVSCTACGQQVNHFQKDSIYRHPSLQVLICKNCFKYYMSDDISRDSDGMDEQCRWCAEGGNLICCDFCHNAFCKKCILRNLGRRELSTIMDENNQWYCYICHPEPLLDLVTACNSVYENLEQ

[1] = molecular target: ADD_(ATRX) Y203A mutant (purified, for ITC) (human) (UniProt P46100); assay: ITC
[2] = molecular target: ADD_(ATRX) (ATRX fragment 167–289) (human) (UniProt P46100); assay: ITC
[3] = molecular target: unmodified H3 tail (as used in the SPR assay); assay: SPR

With “H3_5–13K9me3: synthetic H3 peptide, residues 5–13, Lys9 trimethylated (QTARKSTGG; trimethyl-lysine at 9)” the “binding in ITC titration” value (ADDATRX) was “totally lost”.

“H3_(1–15)K9me3 peptide (from UniProt P68431 2-16)” was tested, and the Kd [1] was 4.6 µM and the dH [1] was -4.7 kcal/mol.

“H3 peptide trimethylated at both Lys4 and Lys9” showed a Kd [2] of 4.9 µM and a dH [2] of -12 kcal/mol.

B1: ADD_(ATRX) (as used in the SPR assay) (domain or fragment)
chain: KRGEDGLHGIVSCTACGQQVNHFQKDSIYRHPSLQVLICKNCFKYYMSDDISRDSDGMDEQCRWCAEGGNLICCDFCHNAFCKKCILRNLGRKELSTIMDENNQWYCYICHPEPLLDLVTACNSVFENLEQLLQQNKK
B1 gave a Kd [3] of 3.2 µM.

— PMC3130887 (Nature structural & molecular biology, 2011)
